{"source": "patent US20220275390A1", "about": "“RUBISCO-BINDING PROTEIN MOTIFS AND USES THEREOF” (The Trustees of Princeton University, priority 2019, published 2022)", "molecules": {"B1": {"name": "RBM P1-Venus: Rubisco-Binding Membrane Protein 1 (SEQ ID NO: 1) fused to the Venus fluorescent protein (protein)", "chain": "MQCQLKHGARPQSQRPNWLPARAATLRPAVQHGVRRGLTLGVKAAAAPLEDKKMPADMTTRQYRRVVYDFALWAKHRDVNRYLYNLRTIPGSRIIRQLSQPMGVVLAWAALFGFYETCLEAGVLPSYLPKMTLMSAEPQGLTSFALSLLLVFRTNSSYGRFDEARKIWGGILNRARNIANQAVTFIPAEDQAGREAVGKWTVGFTRALQAHLQEDIDLRKELEKATPRWSKEEIDMLVNAQHRPIKAISVLSELTRQLSITQFQALQMQENCTFFYDALGGCERLLRTPIPVSYTRHTARFLTIWLAMLPLGLWERYHWSMLPVIALIGFLLLGIDEIGISIEEPFGILPLDAICGRAQTDVNSLLKEDPAVMKYVDDVRSGRVKSPPPLPPAPAAPAAAAAAAAAAARSVSPQPDVAKTLGSLFTNVRAGVGAVAPGAPLMPQAPVRSPSPTRSVSPSFPRASAGTGMPPPVGMNGATPRVAAAPPTPPPVSRPAAPAAAPAAGSGFTMPNFSASLSGLTGGAAAAAKSAADAASSKLTKMADSMSSGAAAPAPPAAPARPSTSPRPSASSPISSSADADRSDSSRRPVNWRDELQSLKATREPNGNGNGSGVAPAAGRADADEEALRRFGNLAGRSRSGNGGGGSSDTELSEANRPRTRPDWRNQL"}, "B2": {"name": "D23A: C. reinhardtii Rubisco SSU with mutation D23A (protein)", "chain": "MMVWTPVNNKMFETFSYLPPLTAEQIAAQVDYIVANGWIPCLEFAEADKAYVSNESAIRFGSVSCLYYDNRYWTMWKLPMFGCRDPMQVLREIVACTKAFPDAYVRLVAFDNQKQVQIMGFLVQRPKTARDFQPANKRSV", "modifications": "left off: small tags and cut ends"}, "B3": {"name": "R91A: C. reinhardtii Rubisco SSU with mutation R91A (protein, UniProt P00873 46-185, looked up, variant R91A)", "Ribulose bisphosphate …": "B2 chain with A23D, R91A"}, "B4": {"name": "E24A: C. reinhardtii Rubisco SSU with mutation E24A (protein, UniProt P00873 46-185, looked up, variant E24A)", "Ribulose bisphosphate …": "B2 chain with A23D, E24A"}, "B5": {"name": "V94D: C. reinhardtii Rubisco SSU with mutation V94D (protein, UniProt P00873 46-185, looked up, variant V94D)", "Ribulose bisphosphate …": "B2 chain with A23D, V94D"}, "B6": {"name": "M87D: C. reinhardtii Rubisco SSU with mutation M87D (protein, UniProt P00873 46-185, looked up, variant M87D)", "Ribulose bisphosphate …": "B2 chain with A23D, M87D"}}, "key": {"[1]": {"system": "C. reinhardtii cells", "assay": "Confocal fluorescence microscopy localization of Venus fusion proteins", "format": "cell-based, Chlamydomonas reinhardtii", "conditions": "Venus fluorescence in C. reinhardtii cells", "from_the_text": "A synthetic […] (Invitrogen) containing a 643 bp restriction fragment containing the C-terminus of Venus, followed by the sequence coding for the FLAG-tag sequence, and a sequence coding for three repetitions of the 15 C-terminal amino acids of SAGA2, was cloned into pLM005-FDX1, after restriction digestion with EcoRl and PfIMI. GenBank accession number of the empty pLM005 is KX077945.1. The plasmid pLM005-FDX1 is identical to pLM005 with the genomic sequence of FDX1 cloned in frame by Gibson Assembly (Mackinder et al., PNAS 113: 5958-5963, 2015) between residues 2698 and 3234. The terminal 85 amino acids of resultant mature fusion protein, immediately downstream of the FLAG-tag, were a 5 aa linker (GGGGS; SEQ ID NO: 87), a first copy of SAGA2 15 C-terminal aa, followed by a 10 aa linker (2X GGGGS; SEQ ID NO: 88), a second copy of SAGA2 15 last aa, another 10 aa linker (2X GGGGS; SEQ ID NO: 88), and finally a third copy of SAGA2 15 last aa. The sequence of the EcoRI-PfIMI digestion fragment (SEQ ID NO: 89) was cloned in frame into pLM005-FDX1.\nCulturing and Transformation of C. reinhardtii: Culturing and transformation of C. reinhardtii for fluorescence localization of protein and imaging was performed as described in Mackinder et al. (PNAS 113: 5958-5963, 2015). […]"}, "[2]": {"system": "EPYC1", "assay": "Yeast two-hybrid assay of EPYC1 with Rubisco SSU variants", "format": "cell-based, Chlamydomonas reinhardtii", "conditions": "growth on SD-L-W-H with 3-AT, three days, FIGS. 9A-9C", "from_the_text": "FIGS. 9A-9C show the results of a yeast two-hybrid (Y2H) assay to measure the interaction between EPYC1 and Rubisco SSU variants. […] The images shown were taken following three days of cell growth. The Rubisco SSU residues that form salt bridges with EPYC1 residues are bolded (D23, E24, and R91) and the residues that form the hydrophobic pocket with EPYC1 residues are bolded and italicized (M87 and V94). The “Control” images were taken from cells grown for three days on SD-L-W media and the “Test” images were taken from cells grown for three days on SD-L-W-H with 3-AT. Growth of yeast cells expressing the indicated EPYC1 and Rubisco SSU variants was measured after three days on SD-L-W-H with varying 3-AT concentrations. The highest concentration of 3-AT (0, 1, 2.5, 5, 10, and 20 mM) permissive for the growth of each EPYC1 and Rubisco SSU variant combination is shown, as indicated in the “Key” on the right.\nMutagenesis of EPYC1, Mutagenesis of Rubisco, Yeast Two-hybrid, Peptide Arrays and SPR Assays To determine the importance of individual EPYC1 residues for binding to Rubisco, the impact on Rubisco binding of every possible single amino acid substitution for EPYC1 RBM 2 was determined (FIG. 8). To determine the importance of individual Rubisco residues for binding to EPYC1, targeted mutations of the amino acids identified from atomic modeling were tested in a yeast two-hybrid assay as in van Nues and Beggs (Genetics 157: 1451-1467, 2000). Peptide arrays and SPR assays were performed as in Example 1."}}, "note": "Where a chain is given by its changes, count along the chain named. In names and notes the source's numbering stands."}
{"molecule": "B1", "values": [{"measurement": "localization pattern within the pyrenoid", "setting": "[1]; FIG. 15", "value": "limited to an inner sphere of the Rubisco matrix"}, {"measurement": "localization", "setting": "[1]; FIGS. 14B and 15", "value": "localized to the pyrenoid"}]}
{"molecule": "B2", "values": [{"measurement": "Rubisco SSU-EPYC1 interaction", "setting": "[2]", "value": "severe impact"}]}
{"molecule": "B3", "values": [{"measurement": "Rubisco SSU-EPYC1 interaction", "setting": "[2]", "value": "moderate defect"}]}
{"molecule": "B4", "values": [{"measurement": "Rubisco SSU-EPYC1 interaction", "setting": "[2]", "value": "moderate defect"}]}
{"molecule": "B5", "values": [{"measurement": "Rubisco SSU-EPYC1 interaction", "setting": "[2]", "value": "severe impact"}]}
{"molecule": "B6", "values": [{"measurement": "Rubisco SSU-EPYC1 interaction", "setting": "[2]", "value": "severe impact"}]}
